Substitutions are numbered along the chain they refer to. Names and notes keep the numbering of the source.

Assay [1] has as its target SCFM, stem cell factor V49L F63L double mutant, soluble (UniProt P21583). In words: small angle X-ray scattering; purified SCFWT and SCFM at 3 or 5 mg/mL (193 or 322 µM), 25 °C; radius of gyration compared with that of the theoretical monomer and dimer from PDB 1SCF.
The target in assay [2] is T1, recombinant c-Kit (R&D Systems) (UniProt P10721 26-524).
T1 construct: c-Kit receptor tyrosine kinase, recombinant; No catalogue number printed; the discussion calls it 'recombinant soluble c-Kit'; also called surface-immobilized c-Kit; recombinant soluble c-Kit; source: bought: R&D Systems
T1 sequence (P10721 26-524): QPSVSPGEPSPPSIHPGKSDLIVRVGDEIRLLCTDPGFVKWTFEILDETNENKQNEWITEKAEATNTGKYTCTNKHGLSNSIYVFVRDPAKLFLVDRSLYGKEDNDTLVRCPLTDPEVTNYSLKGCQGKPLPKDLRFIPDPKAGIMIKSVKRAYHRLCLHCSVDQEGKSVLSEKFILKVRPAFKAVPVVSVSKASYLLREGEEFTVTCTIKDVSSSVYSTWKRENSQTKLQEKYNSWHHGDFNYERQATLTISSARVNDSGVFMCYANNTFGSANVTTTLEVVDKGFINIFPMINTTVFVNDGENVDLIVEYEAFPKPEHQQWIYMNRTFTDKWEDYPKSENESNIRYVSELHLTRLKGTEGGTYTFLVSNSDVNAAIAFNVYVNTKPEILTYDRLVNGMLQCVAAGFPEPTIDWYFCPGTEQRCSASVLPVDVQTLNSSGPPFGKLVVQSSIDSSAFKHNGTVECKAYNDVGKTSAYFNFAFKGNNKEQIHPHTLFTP
As to the kind of experiment: SPR; ProteOn XPR36; c-Kit amine-coupled to a GLC chip; SCF proteins flowed in PBST at 100 µL/min, 25 °C; KD from the equilibrium-binding phase, 1:1 Langmuir model; BSA channel subtracted. The settings on record: both partners purified. (In SPR one partner is held on a chip, and binding of the other changes the refractive index at the surface.)

“SCFM, stem cell factor V49L F63L double mutant, soluble (from UniProt P21583 26-214) (ligand)” returned a stoichiometry N in assay [1] of 2.

B1: SCF_(M,K91E), soluble (ligand, UniProt P21583 26-214, looked up)
chain: EGICRNRVTNNVKDVTKLVANLPKDYMITLKYVPGMDVLPSHCWISEMLVQLSDSLTDLLDKLSNISEGLSNYSIIDKLVNIVDDLVECVEENSSKDLKKSFKSPEPRLFTPEEFFRIFNRSIDAFKDFVVASETSDCVVSSTLSPEKDSRVSVTKPFMLPPVAASSLRNDSSSSNRKAKNPPGDSSLH
notes: stem cell factor (SCF), SCFM (V49L, F63L) with K91E, selected from the first-generation yeast display library; source: purified in non-glycosylated form (production described in the Supplementary Materials)
With B1, the equilibrium dissociation constant (Kd) in assay [2] came to 88.9 nM.

B2: SCF_(M,K91E,L98R), soluble (ligand, UniProt P21583 26-214, looked up)
chain: B1 chain with L98R
notes: stem cell factor (SCF), SCFM (V49L, F63L) with K91E and L98R, selected from the second-generation yeast display library; also called SCF_(K91E,L98R); source: purified in non-glycosylated form (production described in the Supplementary Materials)
On to B2, for which the Kd in assay [2] amounted to 40.7 nM.

B3: SCF_(M,S64P,F126S,V131A,E134G,V139I), soluble (ligand, UniProt P21583 26-214, looked up)
chain: B1 chain with S64P, E91K, F126S, V131A, E134G, V139I
notes: stem cell factor (SCF), SCFM (V49L, F63L) with S64P, F126S, V131A, E134G and V139I, selected from the first-generation yeast display library; also called SCFM,N; source: purified in non-glycosylated form (production described in the Supplementary Materials)
On to B3, for which the Kd in assay [2] worked out at 74.4 nM.

What is called stoichiometry N is a count of units in the complex or per binding partner. Usually Kd stands for the equilibrium constant for the complex coming apart.

(Values after PMC7588011, “Engineering Stem Cell Factor Ligands with Different c-Kit Agonistic Potencies” (Molecules, 2020).)
